1 substance from paper PMC4482598 can be followed below.

The assay has as its target ryanodine receptor type 1 (RyR1), endogenous in mouse myotubes (mouse (endogenous in mouse myotubes)) (UniProt E9PZQ0).
Sequence of UniProt E9PZQ0 (E9PZQ0 whole entry): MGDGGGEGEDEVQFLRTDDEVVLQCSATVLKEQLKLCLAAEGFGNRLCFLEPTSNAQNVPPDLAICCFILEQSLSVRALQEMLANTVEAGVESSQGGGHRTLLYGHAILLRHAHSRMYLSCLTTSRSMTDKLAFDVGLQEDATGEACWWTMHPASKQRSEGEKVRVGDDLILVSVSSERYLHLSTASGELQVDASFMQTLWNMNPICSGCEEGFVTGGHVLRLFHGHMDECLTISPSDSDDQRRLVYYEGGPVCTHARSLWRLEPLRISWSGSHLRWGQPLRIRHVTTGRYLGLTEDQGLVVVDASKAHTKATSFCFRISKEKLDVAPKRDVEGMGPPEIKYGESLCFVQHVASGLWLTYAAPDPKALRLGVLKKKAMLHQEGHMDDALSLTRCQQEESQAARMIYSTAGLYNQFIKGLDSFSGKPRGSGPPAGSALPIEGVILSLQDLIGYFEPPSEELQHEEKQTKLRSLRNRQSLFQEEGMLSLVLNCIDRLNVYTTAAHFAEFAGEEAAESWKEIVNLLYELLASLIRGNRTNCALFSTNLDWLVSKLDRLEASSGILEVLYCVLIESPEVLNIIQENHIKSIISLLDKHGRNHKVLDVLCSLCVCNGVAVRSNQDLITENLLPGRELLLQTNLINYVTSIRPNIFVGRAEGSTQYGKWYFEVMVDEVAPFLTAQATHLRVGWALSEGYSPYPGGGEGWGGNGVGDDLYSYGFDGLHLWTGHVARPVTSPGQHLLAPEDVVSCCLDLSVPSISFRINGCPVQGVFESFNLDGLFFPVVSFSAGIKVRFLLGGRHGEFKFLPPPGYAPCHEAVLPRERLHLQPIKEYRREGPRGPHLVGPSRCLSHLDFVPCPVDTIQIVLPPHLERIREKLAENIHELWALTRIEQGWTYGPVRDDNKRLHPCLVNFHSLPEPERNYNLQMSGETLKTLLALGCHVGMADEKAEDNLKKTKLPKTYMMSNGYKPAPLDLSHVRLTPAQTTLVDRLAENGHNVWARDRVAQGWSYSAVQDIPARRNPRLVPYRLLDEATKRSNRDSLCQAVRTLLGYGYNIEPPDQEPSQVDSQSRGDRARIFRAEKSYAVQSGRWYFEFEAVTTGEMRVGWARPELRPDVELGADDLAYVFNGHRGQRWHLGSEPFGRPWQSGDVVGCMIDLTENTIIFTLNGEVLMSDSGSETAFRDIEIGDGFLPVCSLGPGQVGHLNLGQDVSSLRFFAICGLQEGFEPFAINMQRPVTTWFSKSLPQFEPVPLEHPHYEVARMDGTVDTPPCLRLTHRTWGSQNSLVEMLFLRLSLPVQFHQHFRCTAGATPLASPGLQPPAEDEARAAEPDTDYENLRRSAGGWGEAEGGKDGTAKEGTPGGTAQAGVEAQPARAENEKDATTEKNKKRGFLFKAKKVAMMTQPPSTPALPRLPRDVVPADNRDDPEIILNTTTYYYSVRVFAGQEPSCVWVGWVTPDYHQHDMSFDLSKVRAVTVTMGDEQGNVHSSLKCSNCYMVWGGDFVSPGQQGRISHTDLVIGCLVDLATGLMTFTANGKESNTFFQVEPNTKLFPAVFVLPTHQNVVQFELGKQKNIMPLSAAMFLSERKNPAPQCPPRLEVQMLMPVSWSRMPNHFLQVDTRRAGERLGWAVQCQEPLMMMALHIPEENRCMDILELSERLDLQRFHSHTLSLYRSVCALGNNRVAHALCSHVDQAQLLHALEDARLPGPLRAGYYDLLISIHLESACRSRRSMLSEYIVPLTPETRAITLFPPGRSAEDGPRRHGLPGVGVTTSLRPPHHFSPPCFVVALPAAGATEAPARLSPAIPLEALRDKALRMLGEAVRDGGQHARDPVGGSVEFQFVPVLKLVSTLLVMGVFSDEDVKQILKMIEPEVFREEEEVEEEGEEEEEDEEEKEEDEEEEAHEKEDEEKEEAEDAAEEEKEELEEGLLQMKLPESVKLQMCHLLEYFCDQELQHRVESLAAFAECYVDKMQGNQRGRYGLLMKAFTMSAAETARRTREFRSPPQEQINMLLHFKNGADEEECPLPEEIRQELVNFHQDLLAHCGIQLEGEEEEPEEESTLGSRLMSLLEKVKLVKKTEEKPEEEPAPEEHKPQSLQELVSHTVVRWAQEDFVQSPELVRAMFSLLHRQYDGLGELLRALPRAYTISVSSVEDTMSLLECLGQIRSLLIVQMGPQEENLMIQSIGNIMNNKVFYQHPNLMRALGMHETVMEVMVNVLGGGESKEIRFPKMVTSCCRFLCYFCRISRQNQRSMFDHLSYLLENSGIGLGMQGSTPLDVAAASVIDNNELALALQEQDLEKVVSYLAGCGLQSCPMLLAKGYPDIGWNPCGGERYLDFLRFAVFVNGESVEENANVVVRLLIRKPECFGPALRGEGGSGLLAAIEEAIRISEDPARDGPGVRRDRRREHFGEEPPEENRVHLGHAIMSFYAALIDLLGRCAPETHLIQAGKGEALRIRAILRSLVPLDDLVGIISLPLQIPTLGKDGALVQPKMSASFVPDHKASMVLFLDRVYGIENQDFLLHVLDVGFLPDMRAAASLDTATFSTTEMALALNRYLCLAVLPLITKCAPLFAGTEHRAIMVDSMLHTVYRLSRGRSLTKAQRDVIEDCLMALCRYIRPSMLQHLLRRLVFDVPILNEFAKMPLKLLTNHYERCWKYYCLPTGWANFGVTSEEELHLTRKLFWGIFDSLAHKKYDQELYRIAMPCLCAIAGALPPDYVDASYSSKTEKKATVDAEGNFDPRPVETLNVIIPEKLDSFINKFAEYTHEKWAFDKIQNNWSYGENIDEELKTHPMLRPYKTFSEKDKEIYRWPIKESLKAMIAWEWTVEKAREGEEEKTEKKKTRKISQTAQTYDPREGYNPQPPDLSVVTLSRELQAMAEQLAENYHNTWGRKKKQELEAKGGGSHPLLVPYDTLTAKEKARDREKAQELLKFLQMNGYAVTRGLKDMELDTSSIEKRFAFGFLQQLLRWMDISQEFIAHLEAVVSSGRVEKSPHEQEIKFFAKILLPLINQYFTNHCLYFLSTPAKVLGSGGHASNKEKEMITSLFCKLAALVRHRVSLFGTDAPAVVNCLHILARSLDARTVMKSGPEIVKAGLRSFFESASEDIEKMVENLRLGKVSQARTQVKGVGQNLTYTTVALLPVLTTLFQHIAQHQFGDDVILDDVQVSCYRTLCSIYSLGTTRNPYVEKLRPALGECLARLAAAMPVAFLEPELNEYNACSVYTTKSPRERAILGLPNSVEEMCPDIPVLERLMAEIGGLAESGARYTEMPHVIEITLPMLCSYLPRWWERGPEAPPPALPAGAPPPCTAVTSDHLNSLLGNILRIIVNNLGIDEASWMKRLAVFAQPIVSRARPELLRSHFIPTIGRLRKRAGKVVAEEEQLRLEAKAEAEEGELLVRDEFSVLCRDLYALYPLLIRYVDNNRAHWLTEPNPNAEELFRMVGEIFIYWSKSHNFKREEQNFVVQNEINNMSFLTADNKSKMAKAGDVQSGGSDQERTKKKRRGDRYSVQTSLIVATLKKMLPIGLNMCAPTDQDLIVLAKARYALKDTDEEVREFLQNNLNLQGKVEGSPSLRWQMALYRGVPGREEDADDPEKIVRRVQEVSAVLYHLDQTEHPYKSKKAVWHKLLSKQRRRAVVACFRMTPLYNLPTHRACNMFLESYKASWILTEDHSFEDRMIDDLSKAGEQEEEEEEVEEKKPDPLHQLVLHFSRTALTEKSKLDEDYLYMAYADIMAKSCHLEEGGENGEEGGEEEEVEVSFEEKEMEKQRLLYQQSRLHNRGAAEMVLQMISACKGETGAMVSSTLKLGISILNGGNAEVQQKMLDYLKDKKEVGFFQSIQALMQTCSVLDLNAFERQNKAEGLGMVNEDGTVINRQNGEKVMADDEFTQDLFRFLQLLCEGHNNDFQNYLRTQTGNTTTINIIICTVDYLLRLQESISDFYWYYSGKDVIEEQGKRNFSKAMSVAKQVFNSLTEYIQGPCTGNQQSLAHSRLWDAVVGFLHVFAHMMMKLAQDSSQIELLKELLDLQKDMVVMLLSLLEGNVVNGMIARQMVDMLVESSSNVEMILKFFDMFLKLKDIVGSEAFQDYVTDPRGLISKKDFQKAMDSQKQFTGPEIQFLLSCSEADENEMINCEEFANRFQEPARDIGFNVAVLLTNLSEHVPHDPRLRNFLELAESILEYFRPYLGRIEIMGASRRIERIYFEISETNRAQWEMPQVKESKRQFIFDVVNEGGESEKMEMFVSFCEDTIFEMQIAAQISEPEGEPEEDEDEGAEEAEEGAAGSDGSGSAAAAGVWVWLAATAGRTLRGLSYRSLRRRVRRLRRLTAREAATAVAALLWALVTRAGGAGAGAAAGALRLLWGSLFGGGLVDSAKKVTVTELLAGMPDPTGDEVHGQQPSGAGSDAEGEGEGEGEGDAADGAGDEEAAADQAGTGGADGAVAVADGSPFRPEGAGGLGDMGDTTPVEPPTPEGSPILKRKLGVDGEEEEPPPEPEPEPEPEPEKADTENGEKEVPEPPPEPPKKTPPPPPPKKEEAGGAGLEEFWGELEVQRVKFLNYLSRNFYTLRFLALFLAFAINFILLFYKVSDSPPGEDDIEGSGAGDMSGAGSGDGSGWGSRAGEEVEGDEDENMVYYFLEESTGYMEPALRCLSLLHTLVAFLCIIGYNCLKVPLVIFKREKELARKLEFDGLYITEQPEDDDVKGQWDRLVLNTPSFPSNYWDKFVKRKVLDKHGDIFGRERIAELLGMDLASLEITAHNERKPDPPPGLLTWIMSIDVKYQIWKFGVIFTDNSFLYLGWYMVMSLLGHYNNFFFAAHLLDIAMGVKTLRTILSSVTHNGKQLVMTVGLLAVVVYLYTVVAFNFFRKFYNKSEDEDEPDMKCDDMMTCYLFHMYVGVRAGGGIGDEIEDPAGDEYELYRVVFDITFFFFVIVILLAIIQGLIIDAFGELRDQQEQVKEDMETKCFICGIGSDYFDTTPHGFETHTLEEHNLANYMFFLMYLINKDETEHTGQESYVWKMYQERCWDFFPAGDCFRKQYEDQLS

“H458 CCPGCC ß1a-CFP (construct 21) (natural protein)” came in with an intramolecular FRET efficiency (C-terminal CFP to FlAsH at H458) of construct 21 in ß1 KO myotubes (control without native ß1 subunits) of 0.12.
